Reference: patent US20230082287A1, “METHODS OF TREATING AN INFLAMMATORY OR OBSTRUCTIVE AIRWAY DISEASE USING ANTI-TSLP ANTIBODY” (Novartis AG, priority 2020, published 2023)
Read-outs that look alike come from different tables or passages of the source.

Legend:
[1] = Healthy Japanese SAD study: serum CSJ117 pharmacokinetics; settings: cross-study comparison at 9 and 32 mg
Procedure: (§2) In addition, the PK analysis set for the healthy Japanese SAD Study included 18 subjects, six subjects per single inhaled dose of 9, 16 and 32 mg administered via Concept 1 device.

[2] = Phase 2a bronchoprovocation study: safety and tolerability; format: in vivo; settings: 12 weeks
Excerpt: (§1) This was a non-confirmatory, randomized, subject- and investigator-blinded, placebo-controlled, parallel-design, multi-center bronchoprovocation study. […] Two sequential dose cohorts were enrolled for this study. • Cohort 1: 24 subjects (12 active and 12 placebo) • Cohort 2a: 4 subjects (3 active and 1 placebo)
No adverse events (AE) imbalance observed across treatment groups. […] No subject discontinued study drug due to an adverse event. The most frequent treatment-emergent adverse events were headache, nasopharyngitis, and oropharyngeal pain.

[3] = First-in-human single ascending dose study: safety and tolerability; format: in vivo
Procedure: The safety, tolerability and PK of CSJ117 have been evaluated in healthy volunteers (HV) in a single ascending dose (SAD) study.
A first-in-human, randomized, subject-blind, placebo controlled, single ascending dose study was conducted to assess the safety, tolerability and pharmacokinetics of CSJ117 in adult healthy subjects. Single dose of 1 mg (Cohort 1), 3 mg (Cohort 2), 9 mg (Cohort 3), 32 mg (Cohort 4), 64 mg (Cohort 5), 160 mg (Cohort 6) or placebo was administered via inhalation.

[4] = GLP monkey toxicity study: dose and exposure multiples versus human 4 mg QD dose; format: in vivo, cynomolgus monkey
Excerpt: The rationale for a 12-week study treatment duration was based on the following: (i) the 12-week treatment period was warranted from a safety perspective given the data from the 13-week cynomolgus monkey toxicity study; (ii) the 12-week dosing period was anticipated to provide greater information on the PK profile of CSJ117 in humans (as compared to a shorter study duration); (iii) completing 12-weeks of dosing prior to dose escalation(s) provided greater safety information, as systemic exposure is expected to have achieved steady state; (iv) 12 weeks was expected to be sufficient duration to allow assessment of PD effects in the AIC.
Lung weight scaling was selected for the HED calculation due to the CSJ117-related changes in the respiratory tract and the lack of significant systemic side effects in the monkey toxicity studies. • Exposure multiples were also calculated to compare the observed systemic exposure in monkeys with the systemic exposure in humans, based on the observed single dose PK data in healthy subjects, assuming either linear or nonlinear PK. For multiple daily inhalations in humans, assuming linear and time-independent PK (i.e., a 2.4 fold accumulation ratio), the estimated human systemic exposure at steady state for a 4 mg dose was 948-fold below the monkey Day 91 systemic exposure.

[5] = system: allergen inhalation challenge (AIC) in subjects with mild atopic asthma; assay: Phase 2a allergen bronchoprovocation study (LAR, EAR, FeNO); format: in vivo, human
Excerpt: CSJ117, as an inhaled Fab targeting TSLP, offers the potential to be an efficacious therapy for severe asthma with a favorable safety and tolerability profile. This study used inhaled allergen bronchoprovocation testing as a model for allergic asthma, in an effort to predict CSJ117 efficacy in the eventual severe asthma patient population. As a model for allergic asthma, standardized inhaled allergen bronchoprovocation testing can induce the acute and some of the more chronic features of asthma in human subjects with mild atopic asthma. In sensitized subjects, inhalation of a relevant allergen results in acute bronchoconstriction (the early asthma response or EAR [EAR defined as ≥20% fall in forced expiratory volume in 1 second (FEV1) between 0-2 hours after inhalation of allergen] Boulet et al 2007). In approximately 50% of subjects the EAR is followed by an inflammatory airway response with prolonged airway narrowing (the late asthma response or LAR [LAR defined as ≥15% fall in FEV1 between 3-7 hours after inhalation of allergen] Boulet et al 2007). In general, inhibition of the LAR in the allergen bronchoprovocation model is a good predictor of clinical efficacy in the moderate to severe asthma patient population (Diamant et al 2013). The objectives of this allergen bronchoprovocation study were to characterize the safety, tolerability, pharmacokinetics (PK) and pharmacodynamic (PD) effects of CSJ117 in subjects with mild atopic asthma over 12 weeks of treatment to determine if further clinical development is warranted.
as §1
There was only one active dose used in the study, i.e. CSJ117 4 mg used for both Cohort 1 & 2a. Placebo subjects from all cohorts were pooled for analyses.
For all cohorts, the study consisted of a 35-day screening period, a baseline evaluation, a 12-week treatment period (consisting of a single dose on Day 1, safety evaluation Days 1-3 and commencement of QD dosing on Day 3) and a 30-day follow up period (FIG. 3).
On Day 1 (Visit 101) of the treatment period, after completion of all pre-dose assessments, subjects were randomized and received a single dose of CSJ117 or placebo in the morning and then underwent safety assessments, observation and PK sampling in-clinic for a period of 8 hours post-dose. On Day 2 (Visit 102), the subject returned to the clinic for evaluation and PK sampling. On Day 3 (Visit 103), the subjects returned to clinic for evaluation. On Day 3 (Visit 103) subjects took an inhaled dose of CSJ117 or placebo in the clinic. For the remaining duration of the 12-week treatment period, subjects took daily inhaled doses of CSJ117 or placebo, in the clinic on study visit days or at home. […]
Dog, cat, horse, mouse, cattle, rat and bird allergens were included in the challenge. Table 6 and Table 7 show the fall in FEV1 values and percentages, respectively, after the allergen challenges. […]
The early asthmatic response (EAR) after an allergen inhalation challenge on Day 42 and Day 84 was assessed by measuring the (1) area under the curve (AUC) time-adjusted percent fall in the FEV1, (2) maximum percent fall in the FEV1, and (3) minimum absolute FEV1 between 0 and 2 hours after […].

[6] = human, in vivo, inhaled or intranasal, 32 mg
Procedure: as §2

[7] = in vivo
Procedure: Single dose of 1 mg (Cohort 1), 3 mg (Cohort 2), 9 mg (Cohort 3), 32 mg (Cohort 4), 64 mg (Cohort 5), 160 mg (Cohort 6) or placebo was administered via inhalation. First-in-human study was conducted in 51 healthy volunteers (HVs), of which 37 subjects were exposed to CSJ117 and 12 to placebo.
The PK analysis set for the FIH SAD Study included 37 subjects. PK samples were collected up to 28 days post dose.

[8] = system: late asthmatic response (LAR); assay: Hill equation simulation of CSJ117 dose-response (LAR efficacy); design: species or system human; settings: for Predicted efficacy: range over Emax scenarios; for ED50: Dose = 4 mg, E = 47.6%, Hill slope n = 1
Procedure: Simulation of Dose-Response Curves of CSJ117 from Doses Ranging from 0.5 to 8 mg:
% Efficacy of CSJ117 in PoC study compared to placebo was calculated using following formula: % E=[(B−A)/B]×100, where, E=Efficacy; A and B are LAR measured by max fall % FEV1 value in treated and placebo groups, respectively.
Maximum efficacy (Emax) of CSJ117 is unknown at this time and three potential values of Emax are possible:
From Emax and ED50 in each scenario above, a dose-response curve was generated using Hill equation to assess range of efficacy values resulting from 0.5 to 8 mg once daily dose of CSJ117 (FIGS. 6 and 7). Efficacy due to 0.5 mg and 8 mg once daily dose of CSJ117 is predicted to range from 10-35% and 65-88% of maximum effect, respectively. As visible in plots of FIGS. 6 and 7, the planned dose range of 0.5, 1, 2, 4, and 8 mg o.d. of CSJ117 during Ph2B (Example 4) is expected to adequately describe the dose-response for CSJ117.

[9] = Day 42, 4 mg QD inhaled (N = 12)
[10] = Day 84, 4 mg QD inhaled (N = 13)
[11] = human, inhaled or intranasal, 1 mg
[12] = human, inhaled or intranasal, 3 mg
[13] = human, inhaled or intranasal, 9 mg
[14] = human, inhaled or intranasal, 32 mg
[15] = human, inhaled or intranasal, 64 mg
[16] = human, inhaled or intranasal, 160 mg

B1: CSJ117: potent neutralizing antibody fragment (Fab) directed against human TSLP; heavy chain SEQ ID NO: 9, light chain SEQ ID NO: 19 (antibody)
heavy: EVQLVESGGGLVKPGGSLRLSCAASGFTFSDYWMHWVRQAPGKGLEWVGHIKSKTDAGTTDYAAPVKGRFTISRDDSKNTLYLQMNSLKTEDTAVYYCAREIYYYAFDSWGQGTLVTVSSASTKGPSVFPLAPSSKSTSGGTAALGCLVKDYFPEPVTVSWNSGALTSGVHTFPAVLQSSGLYSLSSVVTVPSSSLGTQTYICNVNHKPSNTKVDKRVEPKSC
light: SYELTQPLSVSVALGQTARITCSGDNIGSKYVHWYQQKPGQAPVLVIYGDNERPSGIPERFSGSNSGNTATLTISRAQAGDEADYYCQAADWVDFYVFGGGTKLTVLGQPKAAPSVTLFPPSSEELQANKATLVCLISDFYPGAVTVAWKADSSPVKAGVETTTPSKQSNNKYAASSYLSLTPEQWKSHRSYSCQVTHEGSTVEKTVAPTECS
With B1 the “AUCinf in Japanese relative to non-Japanese subjects” value [1] was 0.6-1.5 fold, the “Cmax in Japanese relative to non-Japanese subjects” value [1] was 0.5-1.1 fold and the “Severe or serious adverse events” value ([2]; 4 mg QD) was “No subject developed a severe or serious adverse event”. The Safety and tolerability ([2]; mild asthmatics, 4 mg QD) was “safe and well tolerated”, the “rate of moderately severe adverse events” value ([2]; subjects receiving CSJ117 4 mg QD) was 21.6% and the “Subjects with adverse events (AEs)” value ([3]; 7/37 CSJ117 subjects, single inhaled doses 1-160 mg) was 19 % of subjects. For the same molecule, the “Deaths or serious adverse events” value ([3]; FIH study) was “no deaths or serious adverse events”, the “Accumulation ratio in humans” value ([4]; cynomolgus monkey, in vivo) was 2.4 fold and the “Systemic accumulation ratio observed in monkeys” value ([4]; cynomolgus monkey, in vivo) was 148 fold. For the same molecule, the “Dose multiple: human equivalent dose of monkey NOAEL versus 4 mg QD” value ([4]; lung weight scaling) was 51.5 fold, the “E, % [(B-A)/B]*100” value ([5]; CSJ117 4 mg OD, LAR max fall % FEV1) was 47.6% and the “LAR B-A (placebo minus treatment), Max fall % FEV1” value ([5]; CSJ117 4 mg OD, PoC study) was 8.42. For the same molecule, the “LAR Treatment (A), Max fall % FEV1” value ([5]; CSJ117 4 mg OD, PoC study) was 9.28%, the “LAR time adjusted AUC 3-7 h, Difference (CSJ117-Placebo) (Table 6)” value ([5]; Day 42, 4 mg QD) was −2.64% and the “LAR time adjusted AUC 3-7 h, Difference (CSJ117-Placebo) (Table 7)” value ([5]; Day 42, 4 mg QD) was −2.90%. The “LAR time adjusted AUC 3-7 h, Difference (CSJ117-Placebo) (Table 8)” value ([5]; Day 42, 4 mg QD) was −1.02%, the “LAR time adjusted AUC 3-7 h, Difference (CSJ117-Placebo) (Table 9)” value ([5]; Day 42, 4 mg QD) was −4.70% and the “LAR time adjusted AUC 3-7 h, model-based mean estimate (Table 6)” value [5, 9] was 13.11%. The “LAR time adjusted AUC 3-7 h, model-based mean estimate (Table 7)” value [5, 9] was 6.46%, the “LAR time adjusted AUC 3-7 h, model-based mean estimate (Table 8)” value [5, 9] was 15.11% and the “LAR time adjusted AUC 3-7 h, model-based mean estimate (Table 9)” value [5, 9] was 27.85%. The “LAR time adjusted AUC 3-7 h, Difference (CSJ117-Placebo) (Table 6)” value ([5]; Day 84, 4 mg QD) was −8.42%, the “LAR time adjusted AUC 3-7 h, Difference (CSJ117-Placebo) (Table 7)” value ([5]; Day 84, 4 mg QD) was −7.18% and the “LAR time adjusted AUC 3-7 h, Difference (CSJ117-Placebo) (Table 8)” value ([5]; Day 84, 4 mg QD) was −4.26%. The “LAR time adjusted AUC 3-7 h, Difference (CSJ117-Placebo) (Table 9)” value ([5]; Day 84, 4 mg QD) was −5.41%, the “LAR time adjusted AUC 3-7 h, model-based mean estimate (Table 6)” value [5, 10] was 9.28% and the “LAR time adjusted AUC 3-7 h, model-based mean estimate (Table 7)” value [5, 10] was 4.20%. The “LAR time adjusted AUC 3-7 h, model-based mean estimate (Table 8)” value [5, 10] was 12.83%, the “LAR time adjusted AUC 3-7 h, model-based mean estimate (Table 9)” value [5, 10] was 25.48% and the “minimum absolute FEV1 between 3 and 7 hours compared with placebo” value ([5]; Day 84, p-value of 0.050) was “statistically less”. The “AUC of the time-adjusted fall in FEV1 during the late response” value ([5]; day 84, 4 mg daily inhalation, vs placebo 11.38%, p=0.008) was 4.20%, the “maximum fall % FEV1 during the late response” value ([5]; day 84, 4 mg daily inhalation, vs placebo 17.70%, P=0.029) was 9.28% and the “fractional exhaled nitric oxide (FeNO) compared with placebo” value ([5]; over the 12-week treatment period, 4 mg QD) was “trend for a reduction”. For the same molecule, the “mean T1/2” value [6] was 18.6 to 22.4 h, the “mean terminal elimination half-life (T1/2)” value ([7]; human, inhaled or intranasal) was 17.4 to 21.1 h and the “median time to achieve maximum CSJ117 serum concentration (Tmax)” value ([7]; human, inhaled or intranasal) was 6 to 21 h. For the same molecule, the AUClast [7, 11] was 0.109 µg·h/mL, the Cmax [7, 11] was 0.0059 µg/mL and the T1/2 [7, 11] was 18.5 h. For the same molecule, the Tmax [7, 11] was 21.0 h, the AUClast [7, 12] was 0.127 µg·h/mL and the Cmax [7, 12] was 0.00565 µg/mL. The T1/2 [7, 12] was 18.7 h, the Tmax [7, 12] was 12.0 h and the AUCinf [7, 13] was 0.597 µg·h/mL. The AUClast [7, 13] was 0.353 µg·h/mL, the CL/F [7, 13] was 15.6 L/h and the Cmax [7, 13] was 0.0125 µg/mL. The T1/2 [7, 13] was 21.1 h, the Tmax [7, 13] was 12.0 h and the Vz/F [7, 13] was 481 L. It also gave an AUCinf [7, 14] of 1.71 µg·h/mL, an AUClast [7, 14] of 1.61 µg·h/mL and a CL/F [7, 14] of 22.0 L/h. The Cmax [7, 14] was 0.0576 µg/mL, the T1/2 [7, 14] was 17.4 h and the Tmax [7, 14] was 6.00 h. It also gave a Vz/F [7, 14] of 555 L, an AUCinf [7, 15] of 2.65 µg·h/mL and an AUClast [7, 15] of 2.5 µg·h/mL. It also gave a CL/F [7, 15] of 28.5 L/h, a Cmax [7, 15] of 0.0614 µg/mL and a T1/2 [7, 15] of 20.1 h. The Tmax [7, 15] was 12.0 h, the Vz/F [7, 15] was 815 L and the AUCinf [7, 16] was 5.75 µg·h/mL. It also gave an AUClast [7, 16] of 5.59 µg·h/mL, a CL/F [7, 16] of 33.0 L/h and a Cmax [7, 16] of 0.152 µg/mL. For the same molecule, the T1/2 [7, 16] was 18.2 h, the Tmax [7, 16] was 9.00 h and the Vz/F [7, 16] was 915 L. The “CSJ117 serum exposure versus dose” value [7] was “increased in a dose-dependent manner”, the Predicted efficacy ([8]; 0.5 mg once daily dose) was 10-35 % of maximum effect and the Predicted efficacy ([8]; 8 mg once daily dose) was 65-88 % of maximum effect. It also gave an ED50 ([8]; Scenario 1: Emax 100%) of 4.4 mg, an ED50 ([8]; Scenario 2: Emax 80%) of 2.3 mg and an ED50 ([8]; Scenario 3: Emax 60%) of 1.0 mg.
